Source: the DeepSol protein solubility set

Assay: soluble on expression in E. coli; label from the status in PepcDB or PDB records

Soluble on expression in E. coli, not soluble:
MGSDKIHHHHHHMSSHQLPFQRSDEEVQASSGDSLTIARKQEVVQLLKQISDRTLKNDIISLGMVRNLRIVDDYIYLRLYIGSHQHQLETEIQTVLSSLTWSKKTYIQLCTIPGVRTTLAVSSGKGGVGKSTTAVNLAAALQLAGAKVGLLDADVYGPNVPQMLGLGKSEVKVIDTPKGQRFVPLEAHGIKVMSVGLLAEADHPLAWRGPVLHKIITQFIHEVEWGELDYLLIDLPPGTGDAQITIVQESPICGVILVTTPQNVAISDVRRSVYMFRQVGVPVIEIIENMSYFIGNGGEKISIFGSGGGQKLVEELKAPLLGQIPIDPLICNGGDVGEPLMLVDPNSKASQVFVQIAGALNATFSGSM, MGSDKIHHHHHHMSSIFSLEGIKALGPDELREIQRGGLPVVIHFGDAGDDFLAYVSDHATEWLGTDAIRTVDARRFMEDKEWKAPMLTSEVLPKTIIVDPARWGDSFADKVAALDMTAFYSSNPVLLDYNDAFEVVFLFSTFYHHTMVSVTDFCNLRCRGCSFHGDDSRYDFAASRGKTERQELKEEDYYLFLDQRKPGDDLLFCGTGELFVSKKAMPYIREAIRRGLHVRILTNGMLVDDKVARELVELGVGAVLFSIDGHTKEIVESIRLGADYDRILANLRNLMRVRDEAGSGMIIGVQSGWFDEVKTRKDEILEFWKEFGIDTFSFFAEQVGWFQCIPMHEDKVMPVKTHACFNSLITPVLMTNGYVAPCTGNYQAEWSSLSSSWMKHISEAPFDEIIRYYRKMRTDPASPYRQRCAMCIGRLSTYVNSEYVSAYAEGYRFSERKSDKEAAFVKFSPQDEKTGFTLKKLWNRLLRR, MGSDKIHHHHHHMSSNSRVYGIVPSKRLGRSLGVSPIPFKTCTYSCVYCQLGRTTNFTVKRQTFFPLKVFEEELKGFVKRHRYDFDVVSIVGEGEPTLYTPLDALIDLCKSITGKPVVLITNGSLFWSEKVRKEAKLSDIIMPTLSAWDEKSFRTIHKPHKNLSFQKVFEGLKKFRREYSGEIWLEVMLVKGLNDFALEELKEKISQVESDRVYVNVPVRPPAEGWVEPPDEETIEKAKELFNAASIETPAASRFIAAGEGIDAVLNVIKRHPMNEEEVRDLLTSQKIDPKPVLEKLRSCKNVKIIEYSGRRYYRYTTAE, MGSDKIHHHHHHMSSSAKPLPTIERPREDASGRARVPGWVIGIDLGGTKILAGIARTQEQIIATREEPTLHGEDAPVLAQMARLITSLLSDAGALAQELDNVVIGVPSAVDPQTGLSSLSPNLALPVDRPLADLMSRFVSCPVTVENDVNLAAYGEAWAGAGQGLGSLVFVSFGTGVGMGIVLDGEPWRGAAGRAGEIAYLPVGAAPHETAPLSENGLYEDGVGTSGIRQRFTRDGGTVAELFSLARSGNEQARLAIDSVAKQASIGIAAVHALLDPAVTVIGGGIGSQPEFFTLLQAHLQPLLPFESPLKQSRLGVQAGMIGAVALALKNRVPHPEKSNAENL, MGSDKIHHHHHHMSSSGYVPDNKNLKKSSGTPNLFFDSRKNIFFKRDEKNVAYEVTSTQLPAMIGGAFVDLFMTKGHMREPHWHPNAWELDVVVSGEAVTSILNPETNQLQNYHMKAGQTVFIPMGWWHWITAVTEEVQLHLFFNNDQFETAEGSDILRLTPPEVFQAAYGVSAEKLGKDLSPIKESVVIGPPNLNRIKGVKESDDSNIVVTLNGQITSCEIE, MGSDKIHHHHHHMSSTHTGIEWTDKTWNPTTGCDKVSPGCRYCYAEALTERFPQSFPTGFKLNLHPERLEQPKRWRTPSRIFVNSMSDLFHEDVPFSFLQEIFSIMRETPWHIYQILTKREENLVDLAPKLEWTENIWMGVSVESQRYTYRIDALRKVPAAVRFLSCEPLLESLNLDLQNIDWVIVGGESGYNHRPVKPEWIREILQQTREAEVAFFFKQWGGKHSKAGGRMLDDHTWEEMPKAWRKHIIKWQKKFHGQPKLHELEQKYLMSTK, MGSDKIHHHHHHMSTDKLAIIAVTERGRDLAITLTKTVAATIFVPEKHCTEQTNSLTPDFGTAMREIFTKYQALICIMATGIAVRTLAPVIEDKLSDPAVLVMDEHGKFIISLLSGHVGGANELTERIATITGGAAVITTATDRANVAAIDNIAKQLNGYLPDFKATTKRINGLLAAGKEVGLYIDEPLEIDTRGFTMEEVSPQVYISTKYKLQVATHERIQLVPKQFILGVGCRKGVSAETIDAAFTHFCEQENIHPRAFREIHSITLKAEEPAILHLAEKWHVPFIVHPAEELQTVAGKYPTSAFVQKTVQVGNVALSSADIGSNGNVVTSRFAENGVTFAAGKLTKNSEVAK, MGSDKIHHHHHHMSTNTTSHSTTHSTISSQAVVIKQADFIESIADSLQYISYYHPKDFVDAMTKAYEREESAAAKDAIAQILINSRMSAEGKRPLCQDTGIVTTFVKIGMSVQWDKTDMTVQEMVDEGVRRAYTNPDNPLRASIVSDPAGARKNTKDNTPSVVHIDMVAGNQIEVMIAAKGGGSENKSKMAMLNPSDDIAAWVEKTLPTMGAGWCPPGMLGIGIGGTAEKAAVLAKESLMDPVDIHELMARGAETTEEKLRLDIFERANNLGIGAQGLGGLTTVLDVKIKSVPTHAASKPVVMIPNCAATRHVHFHLDGTGPVDLVPPSLSDWPEITREAGENTHRVNLDTVTQAEIETWKSGDTLLLNGKMLTGRDAAHKRIQMLLESGEGLPAGVDFTGKFIYYVGPVDPVGDEVVGPAGPTTATRMDKFTDMMLDQTGLMGMIGKSERGPETVASIKKHKAVYLMAVGGAAYLVSKAIKKSRVVAFEDLGMEAIYEFDVQDMPVTVAVDTNGVNAHETGPAIWKINIANSKANK, MGSDKIHHHHHHMSTTASIENIDYWRHPSLSGIELSQAEFTHFSFDKHVHLDYHLGVVTQGAQQFVNKGSYYQLGQHSLSTLNPDDTHDGQSRDAEGYRVKVMSIPVEYMNEVSQELGLKEHFFSAPMVDDALLYHYFIHLHELLIQGQVTALASESHLFNFIQLLLRRHPSGILKCNSPQGLSTLQLGLVKQRMHDEPWHNTQLETLAGEVNLSKFQFLRQFKQATGMTPHAYLKRVRLELAKKSLCHGTLVADVAQQLGFFDQSHLNKAFKQAFLLSPVQFQRRML, MGSDKIHHHHHHMSWPLDDETASPHFSIRCLEEPMLINADFSRRAIVTPHEYQWVASPQGGVERVMLDRVGAEKARATSIVRYAPGSHFPRHQHPAGEEILVLSGTFSDEGGHYPAGWYLRNPPGSCHQPSSREGAMIFVKLRQMPLHEARRVRVDTRDPAAWRRQNGREVCPLFADDAEQVCLHRMAPNDALVAAQGDGAELLVLTGAVVAEGEIYGRGSWIRVPADDSLHVVAASQGATVYLKTGLPVAIGAEV, MGSDKIHHHHHHMSWRYALKNYVTSPETVNDDTVTYFDDKVSIIRDSFPKSECHLLILPRTMQLSRSHPTKVIDAKFKNEFESYVNSAIDHIFRHFQEKFRIKKSDDDKDPCWDDILKDKNKFVRNFVQVGIHSVPSMANLHIHVISKDFHSVRLKNKKHYNSFNTGFFISWDDLPLNGKNLGTDKEIETTYLKEHDLLCCYCQRNFSNKFSLLKKHLELEFNSHFELK, MGSDKIHHHHHHMTAALPAGSDLVIVLPHLGPGGAQKVALMAAEHFLVQGRQVTLVTLLPDKPLSHAVPEGLRWVDLGPAVAETTSNRAPIARIWRFSCTWGRRSLAWISLVIGWKVLKRLVPGQAPLFVQWLVSSASGVQATLLRDLLYAGKPARVLSLLTRTNLLCCQAMWALPGHLVVSERNDPRLQKQSFPWLRLRSWLWQRADVITANTIGVLEGLQHCHPAMADDMRLLPNPLVVDSHPGNHSDEPASGTCFLAVCRLVPQKGIDLLIQAYAQLPEPLREMWPLLIAGDGPERASLETLASSLLPRGQVRFMGFQRNPQVLYHRDAVFVLSSRFEGMPNSLLEAMGSGLAVIVSDASPGPLEVVVHGKSGWVVPTEKVTLLAEAMQAMAENPALRCRLGDAAAEFMDAYSWDTLDPIWSDILCLEKPG, MGSDKIHHHHHHMTAEDTYKTIVEPSEGIYTEKRSKFIAIALPVRTLDEIKAHLETYQKKYYDARHVCYAYMLGAARKDFRANDNGEPSGTAGKPILGQINSNELTDILIIVVRYFGGIKLGTSGLIVAYKAAAAEAISAATIIEKTVDEEVTVMFEYPFMNDIMRIVKEEEPEILSQSYDMDCSMTLCIRRSMMPKLRARLEKVETARILDEE
